Results published in publication PMC7037199 (International Journal of Molecular Sciences, 2020).
Values joined by “and” are separate entries in the source; they are usually repeats but may differ in a detail not shown here. Equal values may be shown once.

B1: apolipoprotein E in whole brain lysates of Tg2576 mice (natural protein, mouse (endogenous in Tg2576 mouse brain), UniProt P08226 19-311, looked up)
chain: EGEPEVTDQLEWQSNQPWEQALNRFWDYLRWVQTLSDQVQEELQSSQVTQELTALMEDTMTEVKAYKKELEEQLGPVAEETRARLGKEVQAAQARLGADMEDLRNRLGQYRNEVHTMLGQSTEEIRARLSTHLRKMRKRLMRDAEDLQKRLAVYKAGAREGAERGVSAIRERLGPLVEQGRQRTANLGAGAAQPLRDRAQAFGDRIRGRLEEVGNQARDRLEEVREHMEEVRSKMEEQTQQIRLQAEIFQARLKGWFEPIVEDMHRQWANLMEKIQASVATNPIITPVAQENQ
notes: Apolipoprotein E endogenous in mouse brain; also called apoE; apoE monomers; source: endogenous, Tg2576 mouse brain lysate

Key:
[1] = biological target: amyloid-β in whole brain lysates of Tg2576 mice (human); assay: non-reducing Tris-Tricine SDS-PAGE with Western blot (SDS-stable bands); whole brain lysates of Tg2576 mice prepared with or without 100 μM TPEN; blots with anti-Aβ (6E10) or anti-apoE; no dithiothreitol or β-mercaptoethanol
[2] = biological target: the molecule itself; assay: as above

| Molecule | stoichiometry N [1] | stoichiometry N [2] |
| --- | --- | --- |
| amyloid-β in whole brain lysates of Tg2576 mice (peptide) | 4 and 3 | – |
| B1 | – | 2 |
